Paper PMC6798810
Positions count from the first letter of the chain named.

What was measured:
Test in all cases: EMSA
Conditions in all cases: EMSA: 15 ng/uL PCR product, 0.01-0.6 uM His-tagged protein, 45 min; MHQ 30 min, then DTT 30 min; buffer, pH and temperature not given (cited to ref. 44)
[1] = tested on: T1, MhqR (Staphylococcus aureus COL), ORF:0a4449b0
T1 sequence: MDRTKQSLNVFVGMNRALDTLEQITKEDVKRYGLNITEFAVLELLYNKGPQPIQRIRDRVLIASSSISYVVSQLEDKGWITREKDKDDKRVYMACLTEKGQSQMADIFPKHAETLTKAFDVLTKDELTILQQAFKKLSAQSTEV

[2] = tested on: T2, MhqR C95A C95A (Staphylococcus aureus COL), ORF:0a4449b0
T2 sequence: T1 sequence with C95A

[3] = tested on: MhqR C95A (Staphylococcus aureus COL)
[4] = tested on: MhqR (Staphylococcus aureus COL)

Question: Which binding [1] does the source give for “ACATATCAACTCCTATCATGATTGATTATAGTATTTCCCTATTCTATTTTAACTTAAACGAAGTCAAAGGTGCATGACAGTCATGTGACGACATTGCCACATCTATGTAGTCGTTTTTATTAAGCACAGTTTGAAATGAAGATGAAAACACGTATCTTGACATTAAATCTATTCAGTTATATAATTTATCCCTAAATCGAAATAAAATAAAAAAGTTGGTGATCATATGGATCGAACG (double strand) [PmhqRED m1]” here?
Answer: no binding

Question: For “ACATATCAACTCCTATCATGATTGATTATAGTATTTCCCTATTCTATTTTAACTTAAACGAAGTCAAAGGTGCATGACAGTCATGTGACGACATTGCCACATCTATGTAGTCGTTTTTATTAAGCACAGTTTGAAATGAAGATGAAAACACGTATCTTGACATTAAATCTATTCAGTTATATAATTTATCTCGAAATAGGAATAAAATAAAAAAGTTGGTGATCATATGGATCGAACG (double strand) [PmhqRED m2]”, which binding [1] is on record?
Answer: no binding

Question: Which results are given for “ACATATCAACTCCTATCATGATTGATTATAGTATTTCCCTATTCTATTTTAACTTAAACGAAGTCAAAGGTGCATGACAGTCATGTGACGACATTGCCACATCTATGTAGTCGTTTTTATTAAGCACAGTTTGAAATGAAGATGAAAACACGTATCTTGACATTAAATCTATTCAGTTATATAATTTATCTCGAAATCGAAATAAAATAAAAAAGTTGGTGATCATATGGATCGAACG (double strand) [PmhqRED promoter probe]”?
Answer: Kd [2]: 14.2 nM; Kd [1]: 7.38 nM

Question: What does the source list for PmhqRED promoter probe?
Answer: Kd [3]: 14.2 nM; Kd [4]: 7.38 nM
